This data set is described as follows: yeast display, Sf9 membrane polyspecificity reagent, FACS + sequencing; frameworks hold sequencing errors. In outline:
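Galactose-induced (36–48 hours) yeast carrying a synthetic nanobody display library were exposed to 10% biotinylated, detergent-solubilized Sf9 membrane reagent at 4 °C for 1 hour. FACS followed streptavidin microbead enrichment, using low and high (top ~1%) gates for expression (anti-HA) and reagent binding (streptavidin). Colony PCR, MiSeq 2 × 250 sequencing and CDR-length filtering followed. Labels for polyreactivity reflect the gate of origin.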
Consider “QVQLVESGGGLVQAGGSLRLSCAASGSILGYYAMGWYRQAPGKERELVAANTASGGSTYYADSVKGRFTISRDNAKNTVYLQMNSLKPEDTAVYYCAAQYYATYGYWGQGTQVTVSS”, for which the “polyreactivity (PSR sort gate)” value was “low polyreactivity”. The same measure for “QVQLVESGGGLVQAGGSLRLSCAASGSTFGWYAMGWYRQAPGKERELVASITSGGRTNYADSVKGRFTISRDNAKNTVYLQMNSLKTEDTAVYYCAKRVYGSNSLYDYWGQGTQVTVSS”: “low polyreactivity”; for “QVQLVESGGGLVQAGGSLRLSCAASGFTFGYYGMGSYRQAPGKERELVAAISWSGGSTYYADSVKGRFTISRDNAKNTVYLQMNSLKPEDTAVYYCAASAGYASNYWGQGTQVTVSS”: “low polyreactivity”. With “QVQLVESGGGLVQAGGSLRLSCAASGSTITDYDMGWYRQAPGKERELVAAITSGGSTNYADSVKGRFTISRDNAKNTVYLQMNSLKPEDTAVYYCAAADADRKYDYWGQGTQVTVSS”, the “polyreactivity (PSR sort gate)” value is “low polyreactivity”. With “QVLLVESGGGLLQAGGSLRLSCAASGFTFLGYVMGWYRQAPGKEREFVADITESGGRTYYADSVKGRFTISRDNAKNTVYLQMNSLKPEDTAVYYCSGEVIFEQLNRMDYWGQGTQVTVSS” the entry was “low polyreactivity”.

Regarding “QVQLVESGGGLVHAGGSLRLSCSPSVSIFNTYAMGWYRQAPGKERELVAGITKTGSPTYYADSVKGRFTISRDIAKNTFYLQMNSLKPEDTAVYYCNARIWPRSYRYDYWGQGTQVTVSS”, the “polyreactivity (PSR sort gate)” value was “high polyreactivity”. On to “QVQLVESGGGLVQAGGSLRLSCAASGSISSWYAMGWYRQAPGKERELVAAISSGVTTYYADSVKGRFTISRDNAKNTVYLQMHSLKPEDTAVDYCAAKTALYRERGYWGQGTQVTVSS”, for which the “polyreactivity (PSR sort gate)” value is recorded as “low polyreactivity”. With “QVQLVESGGGLVQAGGSLRLSCAASGRIFYRNVMGWYRQAPGKERELVAAITYRTGSTYYADSVKGRFTISRDNAKNTVYLQMNSLKPEDTAVYYCATESGLTYDYWGQGTQVTVSS” the entry was “high polyreactivity”; with “QVQLVESGGGLVQAGGSLRLSCAASGSIFYVNTMVWYRQAPGKERELVAGITSRGGSTYYADSVKGRFTISRDNAKNSVYLQMNSLKPEDTAVYYCAKRAYGTALYRGYGYWGQGTQVTVSS”, “low polyreactivity”; with “QVQLGESRGGIVQAGGSLRLSCAASGSTFSYYAMGWYRQAPGKARELVAAISNRGGSTYYADSVKGRFTISRDNAKNTVYLQMNSLKPEDTAVYYCAAYYVFGYSTSGDYWGQGTQVTVSS”, “high polyreactivity”. The same measure for “QVQLVESGGGLVQAGGSLRLSCAASGSIFVPNTMGWYRQAPGKERELVAAIRFSSGRTYYADSVKGRFTISRDNAKNTVYLQMNSLKPEVTAVYYCAADPRYSSGITYTRFYYWGQGTQVTVSS”: “high polyreactivity”.

In the case of “QVQLVESGGGLVQAGGSLRLSCAASGRTFAIYAMGWSRQAPGKERELVAAIRWRDGSTYYADSVKGRFTISRDNAKNTVYLQMNSLKPEDTAVYYCAATSRVYVRGSYWKYGYWGQGTQVTVSS”, the “polyreactivity (PSR sort gate)” value is on record as “high polyreactivity”.

Turning to “QVQLVESGGGLVQAGGSLRLSCAASGRTFARYVMGWYRQAPGKERELVAAISGGGGSTYYADSVKGRFTISRDNAKNTVYLQMNSLKPEDTAVYYCAAVPEGPNTGDDANGLDYWGQGTQVTVSS”, the “polyreactivity (PSR sort gate)” value is “low polyreactivity”. As to “QVQLVESGGGLVQAGGSLRLSCASSGSIFEANDMGWYRQAPGKEREFVADIDANSGSTYYADSVKGRFTISRDNAKNTVNLQMNSLKPEDTADYYCNAQVYLHTAYDYWGQVTQVTVSS”, the “polyreactivity (PSR sort gate)” value is “low polyreactivity”. For the sequence “QVQLVESGGGLVQAGGSLRLSCAASGRTIAAYAMGWYRQAPGKERELVAAISRSGGSTYYADSVKGRFTISRDNAKNTVYLQMNSLKPEDTAVYYCAAQRQYGKFDYWGQGTQVTVSS”, the “polyreactivity (PSR sort gate)” value is “high polyreactivity”.

Take “QVQLVQSGGGLVQAGGSLRLSCAASGRIIGWYAMGWYRQAPGKERELVAAITWSGTSTYYADSVKGRFTISRDNAKNTVYLQMNSLKPEDTAVYYCAADSLPASAPTYYTTLESWGQGTQVTVSS”: the “polyreactivity (PSR sort gate)” value was “low polyreactivity”. In the case of “QVQLVESGGGLVQAGGSLRLSCAASGGTFDSYAMGWYRQAHGKERELVAAITRRTSSTYYADSVKGRFTISRDNAKNTVYLQMHSLKPEDTAVYYCNADSYYYDHRDFGYWGQGTLVTVSS”, the “polyreactivity (PSR sort gate)” value is given as “high polyreactivity”.

As to “QFQLVESVGGLVQAGGSLRLSCAASGLNFSNYAMGWYRQAPGKERELVAVSSSRVSRTYYADSVKGRFTISRDNAKNTVYLQMISLKPEDTAVYYCAARDRTEFYYWGQGTQVTVSS”, the “polyreactivity (PSR sort gate)” value is on record as “high polyreactivity”.

Regarding “QVQLVESGGGLVQAGGILRLSCAASGRIFYGYAMGWYRQAPGKERELVAAISSDGRTYYADSVKGRFTISRDNAKNTVYLQLNSLKPEDTAVYYCAKVPYSGYDYVYWDPSIFEYDYWGQGTQVTVSS”, the “polyreactivity (PSR sort gate)” value is “low polyreactivity”. For “QVQLVESGGGLVQAGCSLRLSCSASGSTFVAYAMGWYRQAPGTERELVAANTTGGSTNYADSVKGRFTISRDNAKNTVYLQMNSLKPEDTAVYYCATDSSTTWLRRATSKGPGEYWGQGTQVTVSS”, the “polyreactivity (PSR sort gate)” value is recorded as “low polyreactivity”.

Take “QVQLVESGGGLVQAGGSLRLICAASGRTFLPNAMGWYRQAPGKERELVAVITSAGSTYYADSVKGRFTISRDNAKNTVYLQRNSLKPEDTAVYYCSADYLDYDLGDPPPRYYYWGQGTQVTVSS”: the “polyreactivity (PSR sort gate)” value is on record as “low polyreactivity”. With “QVQLVESGGGLVQAGGSLRLSCAASGIIFVDNVMGWYIQAPGKERELVAAIDYSGGSTYYADSVKGRFTISRDNAKNSVYLQMNSLKPEDTAVYYCAATDPRRRVRYGYWGQGTQVTVSS” the entry was “low polyreactivity”.

Take “QVQLVESGGGLVQAGGSLSLSCAASGSTFAFNAMGWYRQAPGKERELVAAIYSDGSTDYADSVKGRFTISRDNAKNTVYLQMNSLKPEDTAVYYCAADWGWRYVLPVGWFRYGYWGQGTQVTVSS”: the “polyreactivity (PSR sort gate)” value was “low polyreactivity”. As for “QVQLVESGGGLVQAGGSLRLSCAASGRTFTAYAMGWYRQAPGKERELVASISSGVTYADSVKGRFTISRDNAKNTVYLQMTSLKPEDTAVYYCAARLWYVQGYVPYVHHRFDYWGQGTQVTVSS”, the “polyreactivity (PSR sort gate)” value is “low polyreactivity”.

On to “QVQLVESGGGLVQAGGSLRLSCAASGSTFNYYAMGWYRQAPGKERELVARISWSGSTYADSVKGRFTISRDNAKNTVYLQMNSLKPEDTAVYYCAAPYVQKSHRGMDYWGQGTQVTVSS”, for which the “polyreactivity (PSR sort gate)” value is “low polyreactivity”.

Take “QVQLVESGGGLVQAGGSLRLSCAASGRIFFKNAMGWYRQAPGKERELVAAITWSGGRTYYADSVKGRFTISRDNAKNTVYLQMNSLKPEDTAVYYCNALAPSPYDWGQGTQVTVSS”: the “polyreactivity (PSR sort gate)” value was “high polyreactivity”. The same measure for “QVQLVESGGGLVQAGGSLRLSCAASGSIFFYYAMGWYRQAPGKERELVADITSGGTTYYADSVKGRFTISRDNAKNTVYLQMNSQKPEDTAVYYCNAGLYPGQRPDYTNYSSYYWGQGTQVTVSS”: “low polyreactivity”; for “QVHLVESGGGLVQAGGSLRLSSAASGRNFFNYAMGWYRQAPGKERELVAAISTGGSTTYADSVKGRFTISRDNAKNTVYLQMNSLKPEDTAVYYCARRGRRYRQYSRYYYWGQGTQVTVSS”: “high polyreactivity”.

“QVQLVESGGGLVQAGGSLRLSCAASGIIFYLYAMGWYRQAPGKERELVAAISRRGGSTYYADSVKGRFTISRDKAKNTVYLQMNSLKPEDTAVYYCAATIGTFGYGYWGQGTQVTVSS”: the “polyreactivity (PSR sort gate)” value is given as “high polyreactivity”. With “QVQLVESGGGLVQAGGSLRLRCAASGFTFHRYAMGWYRPAPGKERELVAGITRRSGSTFYADSVKGRFTISRDNAKNTVYLQMNSLKPEDTAVYYCAATVPGLHWIYDYWGQGTQVTVSS” the entry was “high polyreactivity”; with “QVQLVESGGGLVQAGGSLRLSCAASGSTFVKYAMGWYRQAPGKERELVAAITASGGRTYYADSVKGRFTISRDNAKNTVYLQMISLKPEDTAVYYCNARGYHYGTLFDYWGQGTQVTVSS”, “high polyreactivity”; with “QVQLVESGGGLVQAGGSLRLSCAASGITFDTYAMGWYRQAPGKERELVAAISKSGGSTYYADSVKGRFTISRDNAKNTVYLQMNSLKPEDTAVYYCAKDAGSRTVREFGYWGQGTQVTVSS”, “high polyreactivity”. “QVQLVESGGGLVQAGGSLRLSCAASGSIFGRNAMGWYRQAPGKERELVAAISTSGGSTYYADSVKGRFTISRDNAKNTVYLQMNSLKPEDTAVYYCNAEQYTQLDVNLYDYWGQGTQVTVSS”: the “polyreactivity (PSR sort gate)” value is “low polyreactivity”. With “QVQLVESGGGLVQAGGSLRLSCAASGRTFIYYAMGWYRQAPGKERELVATIRGSSTRTYYADSVKGRFTISRDNAKNTVYLQMNSLKPEDTAVYYCAARGTSRKYYYWGQGTQVTVSS” the entry was “high polyreactivity”. With “QVQLVESGGGLVQAGGSLRLICAASGRIYWTYAMGWYRQAPGKERDLVAAISSGGSTNYADSVKGRFTISRDNAKNTVYLQMNSLKPEDTAVYYCAADRWYREYDYWGQGTQVTVSS” the entry was “low polyreactivity”. With “QVQLVESGGGLVQAGGSLRLSCAASGLTSDYNAMGWYRQAPGKERELVAAISSGGRTYYADSVKGRFTISRDNAKNTVYLQMNSLKPEDTAVYYCAAEFRVLRGYQYDYWGQGTQVTVSS” the entry was “high polyreactivity”; with “QVQLVESSGGLVQAGGSLRLSCAASGSIFLYNAMGWYRKAPGTEREMVAAISKSGGSTYYADSVKGRFTISRDNAKYTVYLQMNSLKPEDTAVYYCAAGYGRRIRYGCEYDYWGQGTQVTVSS”, “low polyreactivity”. For the sequence “QVQLVESGGGLVQAGGSLRLSCAASGSIFSRYAMGWYRQAPGKERELVAAISWRGGSTYYADSVKGRFTISRDNAKNTVYLQMTSLKPEDTAVYYCAAVYRGGPYYYWGQGTQVTVSS”, the “polyreactivity (PSR sort gate)” value was “high polyreactivity”. For the sequence “QVQLEETGGGLVHAGGILRLSCAASGIIYVVNAMGWYRQAPAKERELVAAISRNGGSTYYADSVKGRFTISRDNAKNTVYLQMNSLIPEDTAVYYCADRTVGRNAGFDYWGQVTQVTVSS”, the “polyreactivity (PSR sort gate)” value is recorded as “high polyreactivity”. Consider “QVQHVESGGGLVQAGGSLRLSCAASGSTFSYKVMGWYRQAPGKERELVAAISQSGGSTYYADSVKGRFTISRDNAKNTVYLHMNSLKPEDTAVYYCAAERRYYYGWGSFDYWGQGTQVTVSS”, for which the “polyreactivity (PSR sort gate)” value was “low polyreactivity”. With “QVQLQESGGGLVQAGGSLRLSCAASGNISVTGFMGWYRQAPGKERELVASIGIGGTTYYADSVKGRFSISRDNGKNTVYLQLNSLKPEDSAVYYCAARYLYYAYSYWGQGTQVTVSS” the entry was “low polyreactivity”.

For the origin of these results see the nanobody polyreactivity screen of Harvey et al. (2022).
